Results as given in patent US20100184837.

Key:
[1] = biological target: GST-E2 (HCV envelope glycoprotein E2) (Hepatitis C virus) (UniProt P27958); test: competition; conditions: decreased from 36.7% without aptamer
[2] = biological target: HCV envelope glycoprotein E2 (expressed on CT26-HCV-E2 cells) (Hepatitis C virus) (UniProt P27958); test: flow; conditions: strongest binding among rounds; 8 ug ssDNA with 10^6 cells
Chain of HCV envelope glycoprotein E2 (expressed on CT26-HCV-E2 cells) (Hepatitis C virus) (P27958 384-746): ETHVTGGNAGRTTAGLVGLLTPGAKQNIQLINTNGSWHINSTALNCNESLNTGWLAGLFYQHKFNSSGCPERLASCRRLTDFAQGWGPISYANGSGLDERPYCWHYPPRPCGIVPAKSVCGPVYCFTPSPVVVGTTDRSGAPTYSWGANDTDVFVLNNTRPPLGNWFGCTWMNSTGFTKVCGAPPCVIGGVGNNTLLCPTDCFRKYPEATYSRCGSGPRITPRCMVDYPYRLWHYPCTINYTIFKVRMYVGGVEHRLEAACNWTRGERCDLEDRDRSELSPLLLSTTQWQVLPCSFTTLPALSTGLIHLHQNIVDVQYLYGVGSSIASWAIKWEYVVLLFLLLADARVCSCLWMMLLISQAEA

Chain of GST-E2 (HCV envelope glycoprotein E2) (Hepatitis C virus) (P27958 384-746): as above

“GCGGAATTCTAATACGACTCACTATAGGGAACAGTCCGAGCCNNNNNNNNNNNNNNNNNNNNNNNNNNNNNNGGGTCAATGCGTCATA [13th round ssDNA aptamer library]” was tested, and the activity (% E2 binding to Huh 7.5.1 cells) [1] was 23.2 and the binding (% cells bound) [2] was 89.
